Experimental data published in patent US7049398B1, “Melanocortin metallopeptide constructs, combinatorial libraries and applications” (Palatin Technologies, Inc., priority 1999, dated 2006).
Where no end group is shown, it is not given here. [ ]: non-standard residue; d: D form. The star is where a group is joined. Phe(4-F) = N[C@@H](Cc1ccc(F)cc1)C(=O)O; 2Nal = N[C@@H](Cc1ccc2ccccc2c1)C(=O)O; Hydrocinnamoyl = O=C(CCc1ccccc1)*; Aic = NC1(C(=O)O)Cc2ccccc2C1; Tle = CC(C)(C)[C@H](N)C(=O)O; Heptanoyl = CCCCCCC(=O)*; Nle = CCCC[C@H](N)C(=O)O; Ac3c = NC1(C(=O)O)CC1; Tfa = O=C(C(F)(F)F)*; βAla = NCCC(=O)O

Legend:
[1] = biological target: T1, hMC4-R (Homo sapiens, UniProt P32245); experiment: Competitive inhibition binding assay, 125I-NDP-alpha-MSH, hMC4-R membranes; conditions: 0.4 nM 125I-NDP-alpha-MSH
T1 construct: expressed in transfected cells; host or cells: 293 cells
Experimental: (§1) Representative Peptides of this Invention. Representative peptides of this invention were made using library and synthesis methods described herein, and selected peptides were tested using a binding assay. […] The peptides were synthesized using conventional peptide synthesis methods, and were complexed with rhenium using the methods described herein.
(§2) The competitive inhibition binding assay was conducted using membranes prepared from hMC4-R and B-16 mouse melanoma cells (containing MC1-R) using 0.4 nM ^125I-NDP-alpha-MSH (New England Nuclear, Boston, Mass., USA) in 50 mM HEPES buffer containing 1 mM MgCl2, 2 mM CaCl2, and 5 mM KCl, at pH 7.2. The assay tube also contained a chosen concentration of the test peptide of this invention, complexed to a rhenium metal ion as indicated, for determining its efficacy in inhibiting the binding of ^125I-NDP-alpha-MSH to its receptor. Non-specific binding was measured by complete inhibition of binding of ^125I-NDP-alpha-MSH in the assay with the presence of 1 μM alpha-MSH. Incubation was for 90 minutes at room temperature, after which the assay mixture was filtered and the membranes washed three times with ice cold buffer. The filter was dried and counted in a gamma counter for remaining radioactivity bound to the membranes. 100% specific binding was defined as the difference in radioactivity (cpm) bound to cell membranes in the absence and presence of 1 μM alpha-MSH. The cpm obtained in presence of test compounds were normalized with respect to 100% specific binding to determine the percent inhibition of ^125I-NDP-alpha MSH binding. […]

[2] = biological target: T2, MC1-R (B-16 mouse melanoma cells) (Mus musculus, UniProt Q01727); experiment: Competitive inhibition binding assay, 125I-NDP-alpha-MSH, B-16 mouse melanoma cell membranes; conditions: 0.4 nM 125I-NDP-alpha-MSH
T2 construct: B-16 mouse melanoma cells (containing MC1-R); endogenous in cells; host or cells: B-16 mouse melanoma cells
Experimental: as §1, §2

[3] = Conc. cut off 1 μM test peptide
[4] = Conc. cut off 1 μM, hMC4-R membranes
[5] = Conc. cut off 1 μM, B-16 mouse melanoma cell membranes
[6] = Conc. cut off 10 μM, hMC4-R membranes
[7] = Conc. cut off 10 μM, B-16 mouse melanoma cell membranes

T1 sequence (P32245 whole entry): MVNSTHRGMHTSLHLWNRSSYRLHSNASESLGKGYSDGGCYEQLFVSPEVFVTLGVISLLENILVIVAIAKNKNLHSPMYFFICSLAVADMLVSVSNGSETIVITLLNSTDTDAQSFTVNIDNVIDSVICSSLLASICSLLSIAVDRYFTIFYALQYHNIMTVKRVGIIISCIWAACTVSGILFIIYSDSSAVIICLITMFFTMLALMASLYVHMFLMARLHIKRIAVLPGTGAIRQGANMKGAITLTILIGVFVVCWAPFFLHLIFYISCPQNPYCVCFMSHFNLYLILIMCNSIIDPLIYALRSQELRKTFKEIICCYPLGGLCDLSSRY
T2 sequence (Q01727 whole entry): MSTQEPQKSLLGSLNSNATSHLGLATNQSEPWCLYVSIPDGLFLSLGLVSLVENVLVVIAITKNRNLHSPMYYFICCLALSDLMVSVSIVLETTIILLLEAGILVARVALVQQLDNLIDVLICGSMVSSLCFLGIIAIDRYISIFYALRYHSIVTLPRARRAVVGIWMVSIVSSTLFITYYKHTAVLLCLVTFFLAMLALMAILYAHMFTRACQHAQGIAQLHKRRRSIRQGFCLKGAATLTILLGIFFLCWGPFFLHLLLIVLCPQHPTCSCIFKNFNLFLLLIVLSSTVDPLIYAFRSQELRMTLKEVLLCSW

Substance: PL-1450 (Ac-[Nle]AHFRCW-NH2; also: ReO[V] metal complex)
- % Inhibition MC4-R [1, 3]: 66%
- % Inhibition MC1-R (B-16) [2, 3]: 73%

Substance: PL-1862 (Ac-FFC[3‑Abz]K-NH2; also: ReO[V] complex)
- % Inhibition MC4-R [1, 3]: −7%
- % Inhibition MC1-R (B-16) [2, 3]: 17%

Substance: PL-1635 (Ac-[Nle]RA[Ac3c]CW-NH2; also: ReO[V] complex)
- % Inhibition MC4-R [1, 3]: 43%
- % Inhibition MC1-R (B-16) [2, 3]: 14%

Substance: PL-1606 (Ac-[Nle]RA[Aic]CW-NH2; also: ReO[V] metal complex)
- % Inhibition MC4-R [1, 3]: 63%
- % Inhibition MC1-R (B-16) [2, 3]: 44%

Substance: PL-1300 (Heptanoyl-ARCW-NH2; also: ReO[V] metal complex)
- % Inhibition MC4-R [1, 4]: 22%
- % Inhibition MC1-R (B-16) [2, 5]: 62%

Substance: PL-1412 (FHCW-NH2; also: ReO[V] metal complex)
- % Inhibition MC4-R [1, 4]: 54%
- % Inhibition MC1-R (B-16) [2, 5]: 43%

Substance: PL-1595 (Ac-[Nle]AH[Aic]RCW-NH2; also: ReO[V] metal complex)
- % Inhibition MC4-R [1, 3]: 3%
- % Inhibition MC1-R (B-16) [2, 3]: 60%

Substance: PL-1513 (Ac-RFFNFC-NH2; also: ReO[V] metal complex)
- % Inhibition MC4-R [1, 3]: 18%
- % Inhibition MC1-R (B-16) [2, 3]: 23%

Substance: PL-1504 (Ac-RF[2Nal]NCF-NH2; also: ReO[V] complex)
- % Inhibition MC4-R [1, 3]: 21%
- % Inhibition MC1-R (B-16) [2, 3]: 36%

Substance: PL-1348 (Ac-RHFCW-NH2; also: ReO[V] metal complex)
- % Inhibition MC4-R [1, 6]: 51%
- % Inhibition MC1-R (B-16) [2, 7]: 57%

Substance: PL-1090 (Ac-AXCW-NH2; not fully specified (residue 2); printed as Ac-L-Ala-L-Tyr(3′,5′ di-I, 4′-Ac)-L-Cys-L-Trp-NH2; also: ReO[V] metal complex)
- % Inhibition MC4-R [1, 4]: 10%
- % Inhibition MC1-R (B-16) [2, 5]: 2%

Substance: PL-1344 (Heptanoyl-RFHCW-NH2; also: ReO[V] metal complex)
- % Inhibition MC4-R [1, 6]: 81%
- % Inhibition MC1-R (B-16) [2, 7]: 89%

Substance: PL-844 (Ac-FGCW-NH2; also: ReO[V] metal complex)
- % Inhibition MC4-R [1, 6]: 2%
- % Inhibition MC1-R (B-16) [2, 7]: 10%

Substance: PL-808 (Ac-HWCW-NH2; also: ReO[V] metal complex)
- % Inhibition MC4-R [1, 4]: 0%
- % Inhibition MC1-R (B-16) [2, 5]: −3%

Substance: PL-1089 (Ac-A[Phe(4-F)]CW-NH2; also: ReO complex)
- % Inhibition MC4-R [1, 6]: 10%
- % Inhibition MC1-R (B-16) [2, 7]: 0%

Substance: PL-1505 (Ac-RF[2Nal]NCF-NH2; also: ReO[V] complex)
- % Inhibition MC4-R [1, 3]: 29%
- % Inhibition MC1-R (B-16) [2, 3]: 45%

Substance: PL-1320 (Hydrocinnamoyl-RWC[Nle]-NH2; also: ReO[V] metal complex)
- % Inhibition MC4-R [1, 6]: 94%
- % Inhibition MC1-R (B-16) [2, 7]: 96%

Substance: PL-1507 (Ac-RFFNCF-NH2; also: ReO[V] metal complex)
- % Inhibition MC4-R [1, 3]: 22%
- % Inhibition MC1-R (B-16) [2, 3]: 20%

Substance: PL-1366 (Ac-HFWCR-NH2; also: ReO[V] metal complex)
- % Inhibition MC4-R [1, 6]: 64%
- % Inhibition MC1-R (B-16) [2, 7]: 78%

Substance: PL-1112 (HFCW-NH2; also: ReO complex)
- % Inhibition MC4-R [1, 6]: 8%
- % Inhibition MC1-R (B-16) [2, 7]: 0%

Substance: PL-1092 ([βAla]GK(Tfa)CW-NH2; also: ReO complex)
- % Inhibition MC4-R [1, 4]: 4%
- % Inhibition MC1-R (B-16) [2, 5]: 4%

Substance: PL-1073 (Ac-A[Tle]CW-NH2; also: ReO complex)
- % Inhibition MC4-R [1, 4]: 13%
- % Inhibition MC1-R (B-16) [2, 5]: −6%

Substance: PL-1416 (Ac-[Nle]AHFRCW-NH2; also: ReO[V] metal complex)
- % Inhibition MC4-R [1, 4]: 35%
- % Inhibition MC1-R (B-16) [2, 5]: 85%

Substance: PL-1299 (Heptanoyl-[βAla]RCW-NH2; also: ReO[V] metal complex)
- % Inhibition MC4-R [1, 4]: 19%
- % Inhibition MC1-R (B-16) [2, 5]: 1%

Substance: PL-847 (Ac-FHGCW-NH2; also: ReO[V] metal complex)
- % Inhibition MC4-R [1, 6]: 6%
- % Inhibition MC1-R (B-16) [2, 7]: −6%

Substance: PL-1511 (Ac-RFFNCAF-NH2; also: ReO[V] metal complex)
- % Inhibition MC4-R [1, 3]: 26%
- % Inhibition MC1-R (B-16) [2, 3]: 21%

Substance: PL-1315 (Ac-RW[Nle]CF-NH2; also: ReO[V] metal complex)
- % Inhibition MC4-R [1, 6]: 70%
- % Inhibition MC1-R (B-16) [2, 7]: 69%

Substance: PL-1110 (KHFCW-NH2; also: ReO complex)
- % Inhibition MC4-R [1, 6]: 36%
- % Inhibition MC1-R (B-16) [2, 7]: 11%

Substance: PL-1334 (Hydrocinnamoyl-[Nle]WCR-NH2; also: ReO[V] metal complex)
- % Inhibition MC4-R [1, 4]: 12%
- % Inhibition MC1-R (B-16) [2, 5]: 26%
